{
  "source": "the supplement of paper PMC11316812",
  "key": {"MCF7": {"test_system": "MCF7", "assay": "percentage of EdU-negative (G0-arrested) nuclei per well, 72 h; higher = more G0 arrest", "conditions": "reference: sequence is the full UniProt precursor, the tested protein was the secreted form or ectodomain"}, "hTERT-HMEC": {"test_system": "hTERT-HMEC", "assay": "percentage of EdU-negative (G0-arrested) nuclei per well, 72 h; higher = more G0 arrest", "conditions": "reference: sequence is the full UniProt precursor, the tested protein was the secreted form or ectodomain"}, "[1]": {"conditions": "protein concentration 0.0133825 µM"}, "[2]": {"conditions": "protein concentration 0.133825 µM"}, "[3]": {"conditions": "protein concentration 0.0165714 µM"}, "[4]": {"conditions": "protein concentration 0.165714 µM"}, "[5]": {"conditions": "protein concentration 0.0285714 µM"}, "[6]": {"conditions": "protein concentration 0.285714 µM"}, "[7]": {"conditions": "protein concentration 0.0357143 µM"}, "[8]": {"conditions": "protein concentration 0.357143 µM"}, "[9]": {"conditions": "protein concentration 0.0225 µM"}, "[10]": {"conditions": "protein concentration 0.0175 µM"}},
  "note": "± gives the standard deviation of the averaged measurements.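 Further: secreted proteins added to cultured cells, EdU pulse at the end, nuclei found by Hoechst imaging, EdU status from nuclear versus surrounding ring intensity ratio, PBS as neutral control.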",
  "data": [
    {"sequence": "MGPLSAPPCTQHITWKGLLLTASLLNFWNLPTTAQVIIEAKPPKVSEGKDVLLLVHNLPQNLTGYIWYKGQMTDLYHYITSYVVHGQIIYGPAYSGRETVYSNASLLIQNVTQEDAGSYTLHIIKRGDGTGGVTGYFTVTLYSETPKPSISSSNLNPREVMEAVRLICDPETPDASYLWLLNGQNLPMTHRLQLSKTNRTLYLFGVTKYIAGPYECEIRNPVSASRSDPVTLNLLPKLPMPYITINNLNPREKKDVLAFTCEPKSRNYTYIWWLNGQSLPVSPRVKRPIENRILILPSVTRNETGPYQCEIRDRYGGIRSNPVTLNVLYGPDLPRIYPSFTYYRSGENLDLSCFADSNPPAEYSWTINGKFQLSGQKLFIPQITTNHSGLYACSVRNSATGKEISKSMIVKVSETASPQVTYAGPNTWFQEILLL", "values": [
      {"measurement": "percentage of EdU-negative", "setting": "MCF7; [1]", "value": "24.7 ± 1.5", "unit": "%"},
      {"measurement": "percentage of EdU-negative", "setting": "MCF7; [2]", "value": "27.3 ± 1.4", "unit": "%"},
      {"measurement": "percentage of EdU-negative", "setting": "hTERT-HMEC; [1]", "value": "4.917 ± 0.044", "unit": "%"},
      {"measurement": "percentage of EdU-negative", "setting": "hTERT-HMEC; [2]", "value": "5.76 ± 1.7", "unit": "%"}
    ]},
    {"sequence": "MGPLSAPPCTQRITWKGLLLTALLLNFWNLPTTAQVTIEAEPTKVSKGKDVLLLVHNLPQNLAGYIWYKGQMKDLYHYITSYVVDGQIIIYGPAYSGRETVYSNASLLIQNVTREDAGSYTLHIVKRGDGTRGETGHFTFTLYLETPKPSISSSNLYPREDMEAVSLTCDPETPDASYLWWMNGQSLPMTHSLQLSKNKRTLFLFGVTKYTAGPYECEIRNPVSASRSDPVTLNLLPKLPKPYITINNLNPRENKDVLAFTCEPKSENYTYIWWLNGQSLPVSPRVKRPIENRILILPSVTRNETGPYQCEIQDRYGGIRSYPVTLNVLYGPDLPRIYPSFTYYHSGENLYLSCFADSNPPAEYSWTINGKFQLSGQKLFIPQITTKHSGLYACSVRNSATGMESSKSMTVKVSAPSGTGHLPGLNPL", "values": [
      {"measurement": "percentage of EdU-negative", "setting": "MCF7; [3]", "value": "24.4 ± 1.2", "unit": "%"},
      {"measurement": "percentage of EdU-negative", "setting": "MCF7; [4]", "value": "24.3 ± 0.28", "unit": "%"},
      {"measurement": "percentage of EdU-negative", "setting": "hTERT-HMEC; [3]", "value": "4.85 ± 0.26", "unit": "%"},
      {"measurement": "percentage of EdU-negative", "setting": "hTERT-HMEC; [4]", "value": "5.01 ± 0.47", "unit": "%"}
    ]},
    {"sequence": "MGPLSAPPCTQRITWKGVLLTASLLNFWNPPTTAQVTIEAQPPKVSEGKDVLLLVHNLPQNLAGYIWYKGQMTYLYHYITSYVVDGQRIIYGPAYSGRERVYSNASLLIQNVTQEDAGSYTLHIIKRRDGTGGVTGHFTFTLHLETPKPSISSSNLNPREAMEAVILTCDPATPAASYQWWMNGQSLPMTHRLQLSKTNRTLFIFGVTKYIAGPYECEIRNPVSASRSDPVTLNLLPKLSKPYITINNLNPRENKDVLTFTCEPKSKNYTYIWWLNGQSLPVSPRVKRPIENRILILPNVTRNETGPYQCEIRDRYGGIRSDPVTLNVLYGPDLPSIYPSFTYYRSGENLYLSCFAESNPRAQYSWTINGKFQLSGQKLSIPQITTKHSGLYACSVRNSATGKESSKSITVKVSDWILP", "values": [
      {"measurement": "percentage of EdU-negative", "setting": "MCF7; [5]", "value": "25.3 ± 1.1", "unit": "%"},
      {"measurement": "percentage of EdU-negative", "setting": "MCF7; [6]", "value": "30.6 ± 3.2", "unit": "%"},
      {"measurement": "percentage of EdU-negative", "setting": "hTERT-HMEC; [5]", "value": "4.04 ± 0.52", "unit": "%"},
      {"measurement": "percentage of EdU-negative", "setting": "hTERT-HMEC; [6]", "value": "11.7 ± 1.3", "unit": "%"}
    ]},
    {"sequence": "MGPPPGAGVSCRGGCGFSRLLAWCFLLALSPQAPGSRGAEAVWTAYLNVSWRVPHTGVNRTVWELSEEGVYGQDSPLEPVAGVLVPPDGPGALNACNPHTNFTVPTVWGSTVQVSWLALIQRGGGCTFADKIHLAYERGASGAVIFNFPGTRNEVIPMSHPGAVDIVAIMIGNLKGTKILQSIQRGIQVTMVIEVGKKHGPWVNHYSIFFVSVSFFIITAATVGYFIFYSARRLRNARAQSRKQRQLKADAKKAIGRLQLRTLKQGDKEIGPDGDSCAVCIELYKPNDLVRILTCNHIFHKTCVDPWLLEHRTCPMCKCDILKALGIEVDVEDGSVSLQVPVSNEISNSASSHEEDNRSETASSGYASVQGTDEPPLEEHVQSTNESLQLVNHEANSVAVDVIPHVDNPTFEEDETPNQETAVREIKS [Q8TEB7]", "values": [
      {"measurement": "percentage of EdU-negative", "setting": "MCF7; [7]", "value": "24.4 ± 1.5", "unit": "%"},
      {"measurement": "percentage of EdU-negative", "setting": "MCF7; [8]", "value": "31.5 ± 1.1", "unit": "%"},
      {"measurement": "percentage of EdU-negative", "setting": "hTERT-HMEC; [7]", "value": "4.65 ± 0.73", "unit": "%"},
      {"measurement": "percentage of EdU-negative", "setting": "hTERT-HMEC; [8]", "value": "10.2 ± 2.7", "unit": "%"}
    ]},
    {"sequence": "MGPPSASPHRECIPWQGLLLTASLLNFWNPPTTAKLTIESMPLSVAEGKEVLLLVHNLPQHLFGYSWYKGERVDGNSLIVGYVIGTQQATPGAAYSGRETIYTNASLLIQNVTQNDIGFYTLQVIKSDLVNEEATGQFHVYQENAPGLPVGAVAGIVTGVLVGVALVAALVCFLLLAKTGRTSIQRDLKEQQPQALAPGRGPSHSSAFSMSPLSTAQAPLPNPRTAASIYEELLKHDTNIYCRMDHKAEVAS", "values": [
      {"measurement": "percentage of EdU-negative", "setting": "MCF7; [9]", "value": "25 ± 3.7", "unit": "%"},
      {"measurement": "percentage of EdU-negative", "setting": "MCF7; protein concentration 0.225 µM", "value": "25.4 ± 1.4", "unit": "%"},
      {"measurement": "percentage of EdU-negative", "setting": "hTERT-HMEC; [9]", "value": "5.43 ± 0.36", "unit": "%"},
      {"measurement": "percentage of EdU-negative", "setting": "hTERT-HMEC; protein concentration 0.225 µM", "value": "5.03 ± 0.028", "unit": "%"}
    ]},
    {"sequence": "MGPPSSSGFYVSRAVALLLAGLVAALLLALAVLAALYGHCERVPPSELPGLRDLEAESSPPLRQKPTPTPKPSSARELAVTTTPSNWRPPGPWDQLRLPPWLVPLHYDLELWPQLRPDELPAGSLPFTGRVNITVRCTVATSRLLLHSLFQDCERAEVRGPLSPGTGNATVGRVPVDDVWFALDTEYMVLELSEPLKPGSSYELQLSFSGLVKEDLREGLFLNVYTDQGERRALLASQLEPTFARYVFPCFDEPALKATFNITMIHHPSYVALSNMPKLGQSEKEDVNGSKWTVTTFSTTPHMPTYLVAFVICDYDHVNRTERGKEIRIWARKDAIANGSADFALNITGPIFSFLEDLFNISYSLPKTDIIALPSFDNHAMENWGLMIFDESGLLLEPKDQLTEKKTLISYVVSHEIGHQWFGNLVTMNWWNNIWLNEGFASYFEFEVINYFNPKLPRNEIFFSNILHNILREDHALVTRAVAMKVENFKTSEIQELFDIFTYSKGASMARMLSCFLNEHLFVSALKSYLKTFSYSNAEQDDLWRHFQMAIDDQSTVILPATIKNIMDSWTHQSGFPVITLNVSTGVMKQEPFYLENIKNRTLLTSNDTWIVPILWIKNGTTQPLVWLDQSSKVFPEMQVSDSDHDWVILNLNMTGYYRVNYDKLGWKKLNQQLEKDPKAIPVIHRLQLIDDAFSLSKNNYIEIETALELTKYLAEEDEIIVWHTVLVNLVTRDLVSEVNIYDIYSLLKRYLLKRLNLIWNIYSTIIRENVLALQDDYLALISLEKLFVTACWLGLEDCLQLSKELFAKWVDHPENEIPYPIKDVVLCYGIALGSDKEWDILLNTYTNTTNKEEKIQLAYAMSCSKDPWILNRYMEYAISTSPFTSNETNIIEVVASSEVGRYVAKDFLVNNWQAVSKRYGTQSLINLIYTIGRTVTTDLQIVELQQFFSNMLEEHQRIRVHANLQTIKNENLKNKKLSARIAAWLRRNT [Q6Q4G3]", "values": [
      {"measurement": "percentage of EdU-negative", "setting": "MCF7; [10]", "value": "22.3 ± 0.34", "unit": "%"},
      {"measurement": "percentage of EdU-negative", "setting": "MCF7; protein concentration 0.175 µM", "value": "27.4 ± 4.3", "unit": "%"},
      {"measurement": "percentage of EdU-negative", "setting": "hTERT-HMEC; [10]", "value": "5.44 ± 0.3", "unit": "%"},
      {"measurement": "percentage of EdU-negative", "setting": "hTERT-HMEC; protein concentration 0.175 µM", "value": "16.6 ± 0.49", "unit": "%"}
    ]}
  ]
}
